Test [1] deals with human CD22-ECD-His (human) (UniProt P20273). The test can be described thus: ELISA, coated hCD22-ECD-His, antibody 0.01 nM. Background: In an ELISA, binding on a coated surface is turned into a signal by an enzyme label.
The target of test [2] is cynomolgus monkey CD22 on peripheral blood B cells (cynomolgus monkey (Macaca fascicularis)). As to the kind of experiment: FACS, cynomolgus PBMC, CD20+ B cells, antibody 10 nM.
The target of test [3] is human CD22-ECD-His (human) (UniProt P20273). As to the kind of experiment: ELISA, coated hCD22-ECD-His, antibody 0.0001 nM.
Test [4] shares this target. The test can be described thus: ELISA, coated hCD22-ECD-His, antibody 0.10 nM.
Test [5] has the same target. The test can be described thus: ELISA, coated hCD22-ECD-His, antibody 10 nM.
The target of test [6] is human CD22 (full length, on cells) (human) (UniProt P20273). The test can be described thus: FACS, CHO-K1-human CD22 2C4 cells. For orientation: A flow cytometer gives signals particle by particle.
The target is the same in test [7]. The test can be described thus: FACS, Raji cells.
The target of test [8] is cynomolgus monkey CD22 on peripheral blood B cells (cynomolgus monkey (Macaca fascicularis)). As to the kind of experiment: FACS, cynomolgus PBMC, CD20+ B cells, antibody 1 nM.
For test [9], the target named is human CD22 (full length, on cells) (human) (UniProt P20273). As to the kind of experiment: FACS, CHO-K1-human CD22 2C4.
Test [10] has the same target. The test can be described thus: FACS, CHO-K1-human CD22 1G5.
The target of test [11] is cynomolgus monkey CD22 on peripheral blood B cells (cynomolgus monkey (Macaca fascicularis)). The test can be described thus: FACS, cynomolgus PBMC, CD20+ B cells, antibody 100 nM.
The target in test [12] is human CD22-ECD-His (human) (UniProt P20273). As to the kind of experiment: ELISA, coated hCD22-ECD-His, antibody 0.00001 nM.
The target in test [13] is human CD22 (full length, on cells) (human) (UniProt P20273). As to the kind of experiment: FACS, CHO-K1-human CD22 1D9.
For test [14], the target named is human CD22-ECD-His (human) (UniProt P20273). As to the kind of experiment: ELISA, coated hCD22-ECD-His, antibody 100 nM.
The target is the same in test [15]. The test can be described thus: ELISA, coated hCD22-ECD-His, antibody 0.001 nM.

In the case of “anti-hel-hIgG1 (negative control antibody against chicken egg lysozyme)”, the OD450 in test [1] is 0.06; in [3], 0.06; in [4], 0.06; in [5], 0.08; in [12], 0.05; in test [14], 0.15. In test [15], this substance came in with an OD450 of 0.06. The Proportion of VHH-Fc antibody positive cells to B cells (%) was 0% in test [2], 0% in [8] and 3% in [11]. Moreover, the values for the Max MFI in test [6] and in [7] were 340 and 374, respectively. The substance also gave a Cell mean fluorescence density in test [7] of 158. The Cell mean fluorescence intensity in [9], in test [10] and in test [13] was 66 throughout.
